Assay results taken from patent US20030119733A1, “Compositions and methods for inhibiting hepatocyte invasion by malarial sporozoites” (New York University, priority 1992, published 2003).

Tests used:
liver membranes = experiment: Binding activity of aggregated and monomeric FPLC fractions; conditions: aggregated form
Description: To separate monomers from multimers of recombinant CS, the preparations were subjected to molecular sieving chromatography on an FPLC apparatus (Pharmacia, Piscataway, N.J.). One hundred micrograms of CS27IVC in a phosphate buffer containing 150 mM NaCl (pH 7.2) was injected into a Superose 12 sizing column (Pharmacia). The protein was eluted in the same buffer using a flow rate of 0.2 ml/min. A high molecular weight fraction ([…]) co-eluted with thyroglobulin. The monomeric form of the protein eluted between amylase (molecular weight=200 kDa) and BSA (molecular weight=66kDa).
The methods described by Lambert, J. M. et al., Biochemistry 17:5406-5416, 1978 were followed. Falciparum-1 at a concentration of 1 mg/ml was incubated with 250 mM Traut's reagent (Pierce Chemical Co., Rockford, Ill.) in 50 mM triethylamine-hydrochloric acid (TEA-HCl) (pH 8.0), 1 mM Mg(Ac)2, and 50 mM KCl for 20 min. on ice. Traut's reagent (0.5 M stock) was prepared immediately before use in a solution containing equal volumes of 1 M TEA-HCl and 1 M TEA-free base. The sulfhydryl-containing falciparum-1 was oxidized in ambient air at 4° C. overnight. The presence of aggregated disulfide-linked falciparum-1 was confirmed both by chromatography in an FPLC sizing column and by Western blotting as described above.
The gold conjugates employed in the foregoing liver section experiments contained no aggregates. […]

[1] = Clearance studies of 125I-labeled proteins; type: in vivo, mouse; conditions: monomeric fraction of CS27IVC, or Falc-1; i.v., between 2 and 15 minutes
Description: Clearance Studies: Mice were anesthetized with ether, and injected with 10^5 cpm of ^125I-labeled CS27IVC or Falc-1 via the periorbital sinus. At two, five and fifteen minutes after injection, the mice were exsanguinated, the organs removed, rinsed in TBS, blotted dry on filter paper, and counted for radioactivity. To estimate the amounts of blood contaminating the various organs, we repeated the same procedure in mice injected with 100 μl (1.5×10^5 cpm) of ^51Cr-labeled RBC. The mean volumes of blood in the liver, spleen and kidney of the exsanguinated animals were 75, 24, and 35 μl respectively. In all other organs, the amount of blood was negligible, i.e., less than 15 μl. The percent of injected dose of CS which was retained in the various organs was calculated as described as follows: [formula]
Radiolabeled Falc-1 (FIG. 30B), and the aggregated (FIG. 30C) and monomeric (FIG. 30A) fractions of radiolabeled CS27IVC proteins were injected intravenously into the retroorbital sinuses of mice. The animals were sacrificed 2, 5 and 15 minutes later, and the amounts of CS in the blood and in various organs were measured. Additionally, the radioactivity associated with the various organs was calculated. […]

[2] = Solid phase binding assay, analogues of sulfatide and cholesterol-3-sulfate; conditions: dried into microtiter wells
Description: Solid phase binding assays: Thirty μl of lipids or steroids dissolved in methanol (20-250 μg/ml) were dried into wells of microassay plates (Cat.# 3911—Falcon—Oxnard, Calif.). The plates were then blocked with 1% BSA/PBS pH 7.4 (BSA/PBS) for 30 minutes. Wells were incubated with recombinant protein (or with parasite extract) in PBS/BSA for 1 hour, washed 3 times with BSA/PBS, incubated for 1 hour with monoclonal antibodies 2F2 or 2A10 in BSA/PBS, washed 3 times, and then incubated with (10^5 cpm/well) ^125I protein A (Amersham Corp., Arlington Hts., Ill.). In the case of the P. berghei CS protein, wells were incubated with ^125I labelled mAb 3D11. Wells were washed again and the bound radioactive protein was counted in an LKB gamma-counter (model #1260, Pharmacia, Inc., Gaithersburg, Md.). For inhibition assays, the recombinant proteins were mixed with dilutions of the various polymers in BSA/PBS, the mixture was loaded into the wells of the microtiter plates, and the binding assay performed as above. See also, Roberts, et al. J. Biol. Chem. 260:9405-9411, 1985.
1.4 nmol of sulfatide (open squares), cholesterol-3-sulfate (closed triangles), galactocerebroside I (closed circles), galactocerebroside II (open circles) and cholesterol (open triangles) were evaporated into microtiter wells and then incubated with serial dilutions of Vivax-2. […]

Row | Molecule | binding activity (liver membranes) | injected counts recovered in the blood and in various organs [1] | binding to analogues (gangliosides, galactocerebrosides I and II, cholesterol, other steroids) [2]
1 | Falciparum-1: Same as Falciparum-2 minus most of Region II+ (P. falciparum residues 43-348) (protein) AGTNLYNELEMNYYGKQENWYSLKKNSRSLGENDDGNNNNGDNGREGKDEDKRDGNNEDNEKLRKPKHKKLKQPGDGNPDPNANPNVDPNANPNVDPNANPNVDPNANPNANPNANPNANPNANPNANPNANPNANPNANPNANPNANPNANPNANPNANPNANPNVDPNANPNANPNANPNANPNANPNANPNANPNANPNANPNANPNANPNANPNANPNANPNANPNANPNANPNANPNANPNKNNQGNGQGHNMPNDPNRNVDENANANNAVKNNNNEEPSDKHIEQYLKKIKNSISTEWSP | inactive | about 40% | 
2 | Falciparum-2: fragment of P. falciparum CS protein with repeats and Region II+ (residues 43-391) (protein) AGTNLYNELEMNYYGKQENWYSLKKNSRSLGENDDGNNNNGDNGREGKDEDKRDGNNEDNEKLRKPKHKKLKQPGDGNPDPNANPNVDPNANPNVDPNANPNVDPNANPNANPNANPNANPNANPNANPNANPNANPNANPNANPNANPNANPNANPNANPNANPNVDPNANPNANPNANPNANPNANPNANPNANPNANPNANPNANPNANPNANPNANPNANPNANPNANPNANPNANPNANPNKNNQGNGQGHNMPNDPNRNVDENANANNAVKNNNNEEPSDKHIEQYLKKIKNSISTEWSPCSVTCGNGIQVRIKPGSANKPKDELDYENDIEKKICKMEKCSS |  |  | not
